In the RNAGym collection of RNA variant scans (doi:10.1073/pnas.2313332121):
Variants at the floor of the assay were thinned out.

B1: TPR 5TU (parent)
chain: GGAUCUUCUCGAUCUAACAAAAAAGACAAAUCUGCCACAAAGCUUGAGAGCAUCUUCGGAUGCAGAGGCGGCAGCCUUCGGUGGCGCGAUAGCGCCAACGUUCUCAACUAUGACACGCAAAACGCGUGCUCCGUUGAAUGGAGUUUAUCAUG

Variants of: B1
Assay: polymerase ribozyme fitness, log enrichment relative to wild type (log ratio); higher = more active; in vitro selection for triplet polymerase activity
In short: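 A single round of triplicate in vitro selection, including frozen incubation at −7 °C, was applied to PCR-built, transcribed mutant libraries of each subunit of a heterodimeric triplet polymerase ribozyme. Illumina sequencing of input and output libraries retained genotypes with ≥10 input reads and ≥1 read per output. Fitness is the base-2 logarithm of genotype enrichment divided by wild-type enrichment, from inverse-variance-weighted replicate averages.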

Compared with GGAUCUUCUCGAUCUAACAAAAAAGACAAAUCUGCCACAAAGCUUGAGAGCAUCUUCGGAUGCAGAGGCGGCAGCCUUCGGUGGCGCGAUAGCGUCAACGUUCUCAACUAUGACACGCAAAACGCGUGCUCCGUUGAAGGGAGUUUAACAUG [C95U U139G U148A], GGAUCUUCUCGAUCUAACAAAAAAGACAAAUCUGCCACAAAGCUUGAGAGCAUCUUCGGAUGCAGAGGCGGCAGCCUUCGGUGGCGCGAUAGCGUCAACGUUCUCAACUAUGACACGCAAAACGCGUGCUCCGUUGAAUGGAGUUGAUCAUG [C95U U146G] is higher in “polymerase ribozyme fitness (log ratio)” value: -3.14 for the first, -1.04 for the second.

Going from GGAUCUUCUCGAUCUAACAAAAAAGACAAAUCUGCCACAAAGCUUGAGAGCAUCUUCGGAUGCAGAGGCGGCAGCCUUCGGUGGCGCGAUAGCGCAAUCGUUGUCAACAAUGACACGCAAUACGCGUGCUCCGUUGAAUGGAGUUUAUCAUG [C96A A98U C103G U109A A121U] to GGAUCUUCUCGAUCUAACAAAAAAGACAAAUCUGCCACAAAGCUUGAGAGCAUCUUCGGAUGCAGAGGCGGCAGCCUUCGGUGGCGCGAUAGCGUCAACGUUCGCAACUAUGACACGCAAAACGCGUGCUCCGUUGAAUGGAGUUUAUCAUG [C95U U104G], the “polymerase ribozyme fitness (log ratio)” value rises from at most -4.2 to -2.11.

First: GGAUCUUCUCGAUCUAACAAAAAAGACAAAUCUGCCACAAAGCUUGAGAGCAUCUUCGGAUGCAGAGGCGGCAGCCUUCGGUGGCGCGAUAGCGUCAACGUUCUCAACUAUGACACGCAAAACGCGUGCGCCGUUGAAUGGAGUUUAUCAUG [C95U U130G]
Second: GGAUCUUCUCGAUCUAACAAAAAAGACAAAUCUGCCACAAAGCUUGAGAGCAUCUUCGGAUGCAGAGGCGGCAGCCUUCGGUGGCGCGAUAGCGCAGACGUUCUCAACUAUGACACGCAAAACGCGUGCUCCGUUGAAUGGAAUUUAUCAUG [C96A A97G G143A]
The “polymerase ribozyme fitness (log ratio)” value of the first is lower: -2.55 for the first, -0.965 for the second.

Going from GGAUCUUCUCGAUCUAACAAAAAAGACAAAUCUGCCACAAAGCUUGAGAGCAUCUUCGGAUGCAGAGGCGGCAGCCUUCGGUGGCGCGAUAGCGUCAACGUUCUCAACUAUGACACGCAAAACCCGUGCUCCGUUGAAUGGAGUUUAUCAUG [C95U G124C] to GGAUCUUCUCGAUCUAACAAAAAAGACAAAUCUGCCACAAAGCUUGAGAGCAUCUUCGGAUGCAGAGGCGGCAGCCUUCGGUGGCGCGAUAGCGUCAACGUUCUCAACUAUGACACGCAAAACGCGUGCUCCGUUGAAUGUAGUUUAUCAUG [C95U G141U], the “polymerase ribozyme fitness (log ratio)” value rises from -0.723 to 0.762.

Going from GGAUCUUCUCGAUCUAACAAAAAAGACAAAUCUGCCACAAAGCUUGAGAGCAUCUUCGGAUGCAGAGGCGGCAGCCUUCGGUGGCGCGAUAGCGUCAACGUUCUCAACUAUGACAGGCAAAACGCGUGCUCCUUUGAAUGGAGUUUAUCAUG [C95U C116G G133U] to GGAUCUUCUCGAUCUAACAAAAAAGACAAAUCUGCCACAAAGCUUGAGAGCAUCUUCGGAUGCAGAGGCGGCAGCCUUCGGUGGCGCGAUAGCGUCAACGUUCUCAACUAUGACAGGCAAAACGCGUGCUCCGUAGAAUGGAGUUUAUCAUG [C95U C116G U135A], the “polymerase ribozyme fitness (log ratio)” value rises from at most -4.2 to -2.67.

Going from GGAUCUUCUCGAUCUAACAAAAAAGACAAAUCUGCCACAAAGCUUGAGAGCAUCUUCGGAUGCAGAGGCGGCAGCCUUCGGUGGCGCGAUAGCGCAGACGUUCUCAACUAUGACACGCAAAACGCGUGCUCCGUUGAAUGGAGUUUAUCAUG [C96A A97G] to GGAUCUUCUCGAUCUAACAAAAAAGACAAAUCUGCCACAAAGCUUGAGAGCAUCUUCGGAUGCAGAGGCGGCAGCCUUCGGUGGCGCGAUAGCGCAAACGUUCUCAACUAUGACUCGCAAAACGCGUGCUCCGUUGAAUGGAGUUUAUCAUG [C96A A115U], the “polymerase ribozyme fitness (log ratio)” value falls from -0.635 to -2.29.

Compared with GGAUCUUCUCGAUCUAACAAAAAAGACAAAUCUGCCACAAAGCUUGAGAGCAUCUUCGGAUGCAGAGGCGGCAGCCUUCGGUGGCGCGAUAGCGCAAACGUUCUCAACUAUGACCCGCAAAACGCGUGCUCCGUUGAAUGGAGUUUAUCAUG [C96A A115C], GGAUCUUCUCGAUCUAACAAAAAAGACAAAUCUGCCACAAAGCUUGAGAGCAUCUUCGGAUGCAGAGGCGGCAGCCUUCGGUGGCGCGAUAGCGUCAACGUUGUCAACUAUGACACGCAAAACGCGUGCUCCGUUGAAUGGAGUUUAUCAUG [C95U C103G] is lower in “polymerase ribozyme fitness (log ratio)” value: -0.888 for the first, -1.69 for the second.

Compared with GGAUCUUCUCGAUCUAACAAAAAAGACAAAUCUGCCACAAAGCUUGAGAGCAUCUUCGGAUGCAGAGGCGGCAGCCUUCGGUGGCGCGAUAGCGUCAACGUUCUCAACUAUGACACGCAAAACGCGUGCUCCGUUGAAUGGAGUUUAUAAUG [C95U C149A], GGAUCUUCUCGAUCUAACAAAAAAGACAAAUCUGCCACAAAGCUUGAGAGCAUCUUCGGAUGCAGAGGCGGCAGCCUUCGGUGGCGCGAUAGCGUCAACGUGCUUAACUAUGACACGCAAAACGCGUGCUCCGUUGAAUGGAGUUUAUCAUG [C95U U102G C105U] is higher in “polymerase ribozyme fitness (log ratio)” value: at most -4.2 for the first, -2.98 for the second.

Going from GGAUCUUCUCGAUCUAACAAAAAAGACAAAUCUGCCACAAAGCUUGAGAGCAUCUUCGGAUGCAGAGGCGGCAGCCUUCGGUGGCGCGAUAGCGUCAACGUUCUCAACUAUGACACGCAAAACGCGUGCUCAGUUGAAUGGAGUUUAUCAUG [C95U C132A] to GGAUCUUCUCGAUCUAACAAAAAAGACAAAUCUGCCACAAAGCUUGAGAGCAUCUUCGGAUGCAGAGGCGGCAGCCUUCGGUGGCGCGAUAGCGUCAACGUUCUCAACUAUGACACGUAAAACGCGUGCUCCGUUGAAUGGAGUUUAUCAUG [C95U C118U], the “polymerase ribozyme fitness (log ratio)” value rises from -2.32 to -1.09.

With GGAUCUUCUCGAUCUAACAAAAAAGACAAAUCUGCCACAAAGCUUGAGAGCAUCUUCGGAUGCAGAGGCGGCAGCCUUCGGUGGCGCGAUAGCGCAAACGUUCUCCACUAUGACACGCAAAACGCGUGCUCCGUUGAAUGGAGUUUAUCAUG [C96A A106C] the “polymerase ribozyme fitness (log ratio)” value was -0.591.
